Test results reported in article doi:10.1101/2020.12.22.424058, “Structural basis for the dimerization-dependent CRISPR-Cas12f nuclease” (bioRxiv, 2020).
Numbering of substitutions follows the chain as printed. Names and notes keep the numbering of the source.

B1: Un1Cas12f1^D510A (enzyme, UniProt A0A482D308 1-529, looked up)
chain: MAKNTITKTLKLRIVRPYNSAEVEKIVADEKNNREKIALEKNKDKVKEACSKHLKVAAYCTTQVERNACLFCKARKLDDKFYQKLRGQFPDAVFWQEISEIFRQLQKQAAEIYNQSLIELYYEIFIKGKGIANASSVEHYLSDVCYTRAAELFKNAAIASGLRSKIKSNFRLKELKNMKSGLPTTKSDNFPIPLVKQKGGQYTGFEISNHNSDFIIKIPFGRWQVKKEIDKYRPWEKFDFEQVQKSPKPISLLLSTQRRKRNKGWSKDEGTEAEIKKVMNGDYQTSYIEVKRGSKIGEKSAWMLNLSIDVPKIDKGVDPSIIGGIDVGVKSPLVCAINNAFSRYSISDNDLFHFNKKMFARRRILLKKNRHKRAGHGAKNKLKPITILTEKSERFRKKLIERWACEIADFFIKNKVGTVQMENLESMKRKEDSYFNIRLRGFWPYAEMQNKIEFKLKQYGIEIRKVAPNNTSKTCSKCGHLNNYFNFEYRKKNKFPHFKCEKCNFKENAAYNAALNISNPKLKSTKEEP
notes: Cas12f (UnCas12f1, Un1Cas12f1; also known as Cas14), 529 amino acids, 61.5 kDa; plasmid Addgene #112500; Two copies (Cas12f.1 and Cas12f.2) stand in the complex with one sgRNA and the target dsDNA; The model lacks three N-terminal and four C-terminal residues; also called Cas12f D510A mutant; source: E. coli BL21(DE3), purified (Ni-NTA, HiTrap SP HP, Superdex 200); not shown: 10xHis, N-terminal, …
B2: Cas12f (UnCas12f1) (enzyme, UniProt A0A482D308 1-529, looked up)
chain: B1 chain with A510D
notes: Cas12f (UnCas12f1, Un1Cas12f1; also known as Cas14), 529 amino acids, 61.5 kDa; plasmid Addgene #112500; The methods say only 'Cas12f proteins' for the binary complex with sgRNA; also called Un1Cas12f1; Cas14; source: E. coli BL21(DE3), purified (Ni-NTA, HiTrap SP HP, Superdex 200); not shown: 10xHis, N-terminal, cleaved; MBP, N-terminal, cleaved

What was measured:
[1] = molecular target: the molecule itself; test: cryo-EM structure; Cas12f D510A with sgRNA (222 nt) and target dsDNA (60 bp, TTTA PAM) at 1:1.2:1.3, 37°C, then SEC (Superdex 200) in 25 mM Tris-HCl pH 7.6, 150 mM NaCl, 2 mM DTT, 1 mM MgCl2; ternary complex, 3.1 Å; the two Cas12f copies are bound to one sgRNA
[2] = molecular target: the molecule itself; test: cryo-EM structure; Cas12f with sgRNA at 1:1.2, 37°C for 30 min in 25 mM Tris-HCl pH 7.6, 150 mM NaCl, 2 mM DTT, 1 mM MgCl2; binary complex, 3.9 Å; the two Cas12f copies are bound to one sgRNA

Protein	stoichiometry N [1]	binding result [2]
B1	2	
B2		binds
